From paper PMC9307952 (The Journal of Biological Chemistry, 2022) come the findings set out here.

In test [1] the target is T1, E. coli LipBK135A/C169A (catalytically inactive double mutant of lipoate protein ligase B) (E. coli, UniProt P60720 1-213, K135A | C169A). Description: SPR; LipBK135A/C169A immobilised on an activated gold sensor surface (Autolab ESPRIT), increasing concentrations of ACP passed over; 20 mM sodium phosphate pH 8.0, 100 mM NaCl, 298 K; global fit of five injections, 1:1 Langmuir model. The settings on record: both partners purified. A general note: Surface plasmon resonance follows binding to a sensor surface in real time, without labels.

Test [2] addresses T1, E. coli LipBK135A/C169A (catalytically …). Description: SPR; apparent (binding curve did not reach saturation for holo-ACP); LipBK135A/C169A immobilised on an activated gold sensor surface (Autolab ESPRIT), increasing concentrations of ACP passed over; 20 mM sodium phosphate pH 8.0, 100 mM NaCl, 298 K; global fit of five injections, 1:1 Langmuir model. The settings on record: both partners purified.

B1: E. coli C8-ACP (octanoyl-acyl carrier protein), SPR sample (natural protein)
chain: STIEERVKKIIGEQLGVKQEEVTNNASFVEDLGADSLDTVELVMALEEEFDTEIPDEEAEKITTVQAAIDYINGHQA
modifications: octanoyl (C8) chain on a 4'-phosphopantetheine arm (residue not stated)
In test [1], B1 registered a Kd of 36.4 µM.

B2: E. coli apo-ACP (unmodified acyl carrier protein), SPR sample (natural protein)
chain: B1 chain
With B2, the Kd in test [2] was 2100 µM.

B3: E. coli holo-ACP (acyl carrier protein with 4'-phosphopantetheine), SPR sample (natural protein)
chain: B1 chain
modifications: 4'-phosphopantetheine arm (residue not stated)
For the molecule B3, in test [2], the Kd turned out to be 100 µM.
